Test results reported in paper PMC6018538, “The CYP71AZ P450 Subfamily: A Driving Factor for the Diversification of Coumarin Biosynthesis in Apiaceous Plants” (Frontiers in Plant Science, 2018).

Tests used:
CYP71AZ4 = CYP71AZ4 (Pastinaca sativa, UniProt A0A2Z5D854); conditions: read-out: Apparent affinity (μM) / CYP71AZ4; NADPH; product xanthotoxol
COc1ccc2oc(=O)ccc2c1 = test: cells, lysate or membranes; conditions: NADPH; product scopoletin (P04)
COc1ccc2cc(C)c(=O)oc2c1 = test: cells, lysate or membranes; conditions: NADPH; product 8-hydroxy-3-methyl-7-methoxycoumarin
COc1ccc2ccc(=O)oc2c1 = test: cells, lysate or membranes; conditions: NADPH; product daphnetin 7-methyl ether
COc1cc2ccc(=O)oc2cc1O = test: cells, lysate or membranes; conditions: NADPH; product fraxetin
[1] = substrate: O=c1ccc2cc(O)c(O)cc2o1; test: cells, lysate or membranes; conditions: NADPH; product 6,7,8-trihydroxycoumarin

CYP71AZ4, sequence (A0A2Z5D854 whole entry): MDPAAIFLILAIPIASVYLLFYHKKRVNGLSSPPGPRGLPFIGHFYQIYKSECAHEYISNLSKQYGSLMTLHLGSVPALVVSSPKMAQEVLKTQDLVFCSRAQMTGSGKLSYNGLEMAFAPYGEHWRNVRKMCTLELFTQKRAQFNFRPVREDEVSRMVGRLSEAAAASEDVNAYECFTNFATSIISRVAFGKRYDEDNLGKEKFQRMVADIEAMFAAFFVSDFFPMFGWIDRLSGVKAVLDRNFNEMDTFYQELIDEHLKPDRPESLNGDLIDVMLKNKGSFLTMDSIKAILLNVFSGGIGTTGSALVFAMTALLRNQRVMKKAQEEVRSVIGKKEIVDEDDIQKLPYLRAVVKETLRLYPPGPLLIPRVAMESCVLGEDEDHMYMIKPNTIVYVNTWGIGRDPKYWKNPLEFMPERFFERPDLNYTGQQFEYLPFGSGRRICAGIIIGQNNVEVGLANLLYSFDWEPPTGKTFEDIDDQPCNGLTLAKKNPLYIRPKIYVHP

In the case of `O=c1ccc2cc3ccoc3cc2o1` [psoralen], the Km (CYP71AZ4) is reported as 11.3 ± 2.2 µM.

With CYP71AZ4 (Pastinaca sativa) the Km (COc1ccc2oc(=O)ccc2c1) was 9.5 ± 1.5 µM, the Km (COc1ccc2cc(C)c(=O)oc2c1) was 159.9 ± 41.1 µM and the Km (COc1ccc2ccc(=O)oc2c1) was 72.5 ± 15.2 µM. The Km (COc1cc2ccc(=O)oc2cc1O) was 762.2 ± 586.4 µM.

B1: CYP71AZ3 (Pastinaca sativa) (protein)
chain: MEPVFLFLILAFPIASVYLLFYHKKRVVGLSAPPGPPGLPFIGNFHQLYKASSTHEYLWSLSKQYGSLVTLRMGSVPILVVSSPKMAKEVLQTQDLIYCSRPAMTGMQKLSYNGLDVAFSPYTDQWRHTRKFCTLELFTQKRAQLNFRPVREQEVSRMIARLSETAAASKDVNAYEWFSNLATCIISRVAFGKRYDEDGIGKERFQRMLSEIDAMFIGFFVSDFFPMFGWIDKLSGMRDRLDRTFKDLDMFYQELIDEHLKPNRLESPTEDLIDVMLKNEGSSLTKDSMKAILLNVFNGGTGTTATVLAWAMTALLRNQGVMKKAQEEIRSVIGKKGKVDEDDFPSLPYLRAVVKETMRLYPPAPVLVPRETMESSIIGEDKDHMYMVKPKTVVYISMWAIGRDPKTWKNPMEFVPERFLERPDINYKGQQFEYVPFGAGRRICAGINLGVTTVELALANLLYTFDWEPPAGMRFEDIDDETTNGLALQKKNALYIRPKKYMFP
Molecule B1 has a Km [1] of 248.6 ± 51.9 µM.
